± gives the standard deviation of the averaged measurements.
Columns and labels:
Saccharomyces cerevisiae [1] = assay: protein stability index of tFT-peptide fusion (C-terminal peptide) (PSI (0-1 scale)); higher = more stable (slower turnover)
Procedure: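 MPS profiling in S. cerevisiae of the tFT-X12 degron library: putative degron peptides plus stable controls, 12 aa, fused to the C-terminus of a sfGFP-mCherry timer. Cells are FACS-sorted into 8 mCherry/sfGFP bins and deep-sequenced. PSI runs from 0 (unstable) to 1 (stable). Backgrounds are wild type, das1Δ and doa10Δ at 30 °C, and wild type, das1Δ, cdc34-1 and cdc53-1 at 37 °C; 2-3 technical replicates each.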

Saccharomyces cerevisiae [2] = assay: as above; details: genetic background: wild type; temperature: 30 C
[3] = genetic background: cdc34-1, temperature: 37 C
[4] = genetic background: cdc53-1, temperature: 37 C
[5] = genetic background: das1 deletion, temperature: 30 C
[6] = genetic background: das1 deletion, temperature: 37 C
[7] = genetic background: doa10 deletion, temperature: 30 C
[8] = genetic background: wild type, temperature: 30 C
[9] = genetic background: wild type, temperature: 37 C
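Note: PSI is a weighted mean of sequencing reads over stability bins, variants kept only with over 10 reads, mCherry proximal and sfGFP distal, peptide attached via GGGS linker.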

Sequence | protein stability index (Saccharomyces cerevisiae [1]; [3]) | protein stability index (Saccharomyces cerevisiae [1]; [4]) | protein stability index (Saccharomyces cerevisiae [1]; [5]) | protein stability index (Saccharomyces cerevisiae [1]; [6]) | protein stability index (Saccharomyces cerevisiae [1]; [7]) | protein stability index (Saccharomyces cerevisiae [1]; [8]) | protein stability index (Saccharomyces cerevisiae [1]; [9]) | protein stability index (Saccharomyces cerevisiae [2])
ACFLFPSHLLIS | 0.584 ± 0.021 | 0.689 ± 0.0086 | 0.541 ± 0.02 | 0.699 ± 0.021 | 0.165 ± 0.023 | 0.181 ± 0.011 | 0.3022 ± 0.0017 | 0.305 ± 0.0099
AFCGRRGHQFYN | 0.61 ± 0.0073 | 0.743 ± 0.016 | 0.648 ± 0.018 | 0.746 ± 0.037 | 0.144 ± 0.0093 | 0.164 ± 0.014 | 0.42 ± 0.027 | 0.263 ± 0.061
AFRFFWFFFFTS | 0.536 ± 0.066 | 0.619 ± 0.042 | 0.466 ± 0.024 | 0.603 ± 0.035 | 0.446 ± 0.0062 | 0.426 ± 0.017 | 0.557 ± 0.018 | 0.445 ± 0.03
AFSISPFRLRMV | 0.642 ± 0.026 | 0.753 ± 0.025 | 0.649 ± 0.013 | 0.746 ± 0.03 | 0.249 ± 0.0032 | 0.293 ± 0.022 | 0.541 ± 0.0024 | 0.418 ± 0.017
AFWLFSGIARLA | 0.568 ± 0.011 | 0.66 ± 0.023 | 0.472 ± 0.014 | 0.642 ± 0.024 | 0.221 ± 0.014 | 0.277 ± 0.011 | 0.5014 ± 0.0035 | 0.407 ± 0.041
AGESLRAIAVLY | 0.647 ± 0.06 | 0.715 ± 0.025 | 0.588 ± 0.0077 | 0.6605 ± 0.004 | 0.258 ± 0.016 | 0.292 ± 0.018 | 0.47738 ± 0.00044 | 0.42 ± 0.018
AGLTLLWPLCLL | 0.28 ± 0.0058 | 0.261 ± 0.0053 | 0.277 ± 0.022 | 0.394 ± 0.013 | 0.591 ± 0.01 | 0.265 ± 0.034 | 0.353 ± 0.013 | 0.3669 ± 0.0023
AGTLLLGYGILA | 0.454 ± 0.019 | 0.464 ± 0.038 | 0.342 ± 0.023 | 0.5107 ± 0.00054 | 0.309 ± 0.017 | 0.349 ± 0.023 | 0.486 ± 0.0055 | 0.43845 ± 0.00034
AGVRCPLFWLVC | 0.461 ± 0.049 | 0.622 ± 0.032 | 0.498 ± 0.033 | 0.632 ± 0.013 | 0.131 ± 0.012 | 0.138 ± 0.0075 | 0.148 ± 0.01 | 0.156 ± 0.0027
AHPTLILTNKIA | 0.578 ± 0.13 | 0.705 ± 0.063 | 0.643 ± 0.025 | 0.712 ± 0.044 | 0.0637 ± 0.025 | 0.104 ± 0.044 | 0.121 ± 0.023 | 0.237 ± 0.0044
ALLIYFLCRCIP | 0.4326 ± 0.00094 | 0.476 ± 0.011 | 0.343 ± 0.033 | 0.522 ± 0.016 | 0.301 ± 0.015 | 0.33 ± 0.035 | 0.483 ± 0.032 | 0.44 ± 0.034
APLFPPPPARSL | 0.652 ± 0.034 | 0.7023 ± 0.0017 | 0.661 ± 0.014 | 0.704 ± 0.011 | 0.692 ± 0.017 | 0.677 ± 0.03 | 0.688 ± 0.041 | –
ARRFLVRRFILF | 0.545 ± 0.019 | 0.65822 ± 0.00018 | 0.586 ± 0.0066 | 0.683 ± 0.026 | 0.187 ± 0.018 | 0.189 ± 0.021 | 0.326 ± 0.033 | 0.282 ± 0.0087
ASHLGLGCLVVC | 0.601 ± 0.089 | 0.571 ± 0.045 | 0.426 ± 0.018 | 0.604 ± 0.015 | 0.389 ± 0.028 | 0.408 ± 0.02 | 0.579 ± 0.021 | 0.491 ± 0.0059
AYSVIPSLALLP | 0.681 ± 0.062 | 0.741 ± 0.008 | 0.631 ± 0.024 | 0.731 ± 0.0022 | 0.646 ± 0.018 | 0.632 ± 0.01 | 0.706 ± 0.0094 | –
FFCRWGSTVTLL | 0.604 ± 0.034 | 0.696 ± 0.013 | 0.557 ± 0.014 | 0.647 ± 0.037 | 0.4076 ± 0.001 | 0.427 ± 0.01 | 0.559 ± 0.011 | –
GAVRGWGWVSFV | 0.622 ± 0.0072 | 0.789 ± 0.011 | 0.595 ± 0.025 | 0.71792 ± 4.5e-05 | 0.357 ± 0.054 | 0.317 ± 0.04 | 0.436 ± 0.0078 | –
GFYQSGGLVVVV | 0.6489 ± 0.0026 | 0.674 ± 0.014 | 0.501 ± 0.03 | 0.663 ± 0.0058 | 0.482 ± 0.017 | 0.515 ± 0.013 | 0.64 ± 0.028 | –
GGGGGGGDVLVW | 0.265 ± 0.04 | 0.363 ± 0.036 | 0.265 ± 0.037 | 0.426 ± 0.0099 | 0.202 ± 0.022 | 0.244 ± 0.034 | 0.392 ± 0.0048 | –
LPLPPPGSPPPL | 0.653 ± 0.032 | 0.744 ± 0.036 | 0.668 ± 0.021 | 0.726 ± 0.0077 | 0.659 ± 0.014 | 0.682 ± 0.033 | 0.698 ± 0.0069 | –
PSLVFLPPPPPR | 0.673 ± 0.04 | 0.7452 ± 0.0056 | 0.677 ± 0.0098 | 0.7475 ± 0.0016 | 0.681 ± 0.018 | 0.701 ± 0.025 | 0.72099 ± 0.00046 | –

— the supplement of paper PMC10724198
